# Results reported in patent US20220175921A1.
# Assays:
# [1] = molecular target: human GITR, membrane bound (on activated human T cells or on 3A9-hGITR cells) (UniProt Q9Y5U5); experiment: cell-based or functional assay
# [2] = molecular target: human GITR, membrane bound (on activated human T cells or on 3A9-hGITR cells) (UniProt Q9Y5U5); experiment: FACS binding; activated human CD8 T cells; details: ligand
# Chain of human GITR, membrane bound (on activated human T cells or on 3A9-hGITR cells) (Q9Y5U5 26-241): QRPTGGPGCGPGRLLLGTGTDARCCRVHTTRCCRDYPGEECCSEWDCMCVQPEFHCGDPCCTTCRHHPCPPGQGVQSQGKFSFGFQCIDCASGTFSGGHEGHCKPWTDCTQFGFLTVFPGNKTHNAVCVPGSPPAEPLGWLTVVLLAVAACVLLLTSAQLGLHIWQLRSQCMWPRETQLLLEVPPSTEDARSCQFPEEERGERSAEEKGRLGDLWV
# Chain of recombinant human GITR ligand trimer (R&D Systems 6987-GL) (Q9UNG2 49-177): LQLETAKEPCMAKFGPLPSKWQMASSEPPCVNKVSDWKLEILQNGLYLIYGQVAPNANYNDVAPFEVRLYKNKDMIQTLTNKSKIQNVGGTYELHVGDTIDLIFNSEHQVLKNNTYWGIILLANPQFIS
"NFKB signaling (phospho-p65) Emax, CD4+ T cells [1] [%]","NFKB signaling (phospho-p65) Emax, CD8+ T cells [1] [%]",IC50 [2] [µg/mL],Substance
4,6,,hIgG1 Isotype Control (antibody)
,,0.0163,recombinant human GITR ligand trimer (R&D Systems 6987-GL) (from UniProt Q9UNG2 49-177)
